Source: the RNAGym collection of RNA variant scans (doi:10.7554/elife.90254)

B1: LINE1-mini (parent)
chain: GGCAGAGCUCAACACAGCGUGGCAAAGUGGCUGUGGCUAGACUGCC

Variants of: B1
Test: self-cleavage, relative activity (ratio to wild type); higher = more cleavage; in vitro, sequencing; the parent is a self-cleaving ribozyme

Row | Variant | self-cleavage
1 | U9A A14C | 0.04
2 | G35A C45U | 0.13
3 | A11C C46U | 0.11
4 | A4C U9G | 0.24
5 | G19U U43A | 0.06
6 | U28G C46A | 1.1
7 | G2A A39G | 0.22
8 | C18A U28G | 0.5
9 | C8A U28G | 0.08
10 | G5U G30U | 0.26
11 | U9C C31G | 0.02
12 | U9A A11U | 0.03
13 | G2C U38C | 0.04
14 | A39G C45G | 0.09
15 | C10U A24G | 0.35
16 | A4U C46G | 0.12
17 | U28G C45A | 0.44
18 | C3U G30A | 0.75
19 | C3A G30U | 0.61
20 | G1U A16C | 0.08
21 | C3G C10A | 0.05
22 | U38A | 0.47
23 | A14C A24C | 0.11
24 | G22U U38C | 2.12

Row | Variant | self-cleavage
25 | G1U G29A | 0.44
26 | U34C G44U | 0.09
27 | C13U A24G | 0.13
28 | A25C U43A | 0.09
29 | A4G C23U | 0.5
30 | C37A G44C | 0.07
31 | G17C G30A | 0.94
32 | C31U C45U | 0.18
33 | G1U G30A | 0.43
34 | A26G C37U | 0.04
35 | G2C G29C | 0.06
36 | A24U A25C | 1.63
37 | C8U C45U | 0.32
38 | A4G G7A | 0.25
39 | A4U A25G | 0.08
40 | G21U C37U | 0.06
41 | G2U G36A | 0.05
42 | A12G G36U | 0.03
43 | G5A A11G | 0.03
44 | G1U U32C | 0.08
45 | C3G G27U | 0.32
46 | C13A C45G | 0.09
47 | A24U A26U | 1.34
48 | A11C C46G | 0.02

Row | Variant | self-cleavage
49 | G19U A39G | 0.06
50 | A24U G27A | 0.92
51 | G35C U38C | 0.05
52 | G30C U38C | 0.49
53 | G19U C42G | 0.07
54 | A4U G30C | 0.21
55 | A14U G21C | 0.57
56 | G21A C42A | 0.54
57 | A12U U32A | 0.04
58 | A6C U38A | 0.28
59 | G33A C45G | 0.07
60 | G17C A25G | 0.18
61 | A26U C37A | 0.08
62 | A14U G19U | 0.62
63 | U9C C46G | 0.03
64 | G2U C23A | 0.16
65 | G40U C46A | 0.12
66 | G19A U34G | 0.29
67 | A24G U32G | 0.14
68 | U20G G22C | 0.41
69 | G17U G29A | 0.43
70 | G5C U34G | 0.06
71 | G36A G40A | 0.29
72 | G17U U34A | 0.05

Row | Variant | self-cleavage
73 | U20C C37A | 0.04
74 | G33U C42G | 0.07
75 | G40A C42A | 0.1
76 | G21C U38C | 0.48
77 | G1A G7C | 0.6
78 | G17C G40A | 0.04
79 | A16U G30A | 0.1
80 | G30A U38C | 0.64
81 | C18A C31A | 0.16
82 | G17A G19A | 0.62
83 | A25U G27A | 0.59
84 | A12G A41U | 0.04
85 | A14C G17A | 0.08
86 | A4G C13U | 0.23
87 | U28A A41U | 0.42
88 | G2C U9G | 0.07
89 | A11G G33A | 0.03
90 | G2U C15A | 0.04
91 | A26G C46G | 1.53
92 | G7C G17C | 0.1
93 | C8G C10A | 0.03
94 | G17A G36A | 0.1
95 | G1U C31U | 0.07
96 | A12G U32C | 0.14

Row | Variant | self-cleavage
97 | U32A A41G | 0.04
98 | C31U C45G | 0.1
99 | A6C G33C | 0.07
100 | A6G C42G | 0.04
101 | C8A U9C | 0.14
102 | A4G G22A | 1.25
103 | C15U G36A | 0.15
104 | A11G A26U | 0.02
105 | G19A C37G | 0.03
106 | C8G G22C | 0.06
107 | A26U G40A | 0.17
108 | G1A G5U | 0.08
109 | G17U A39C | 0.04
110 | C10G G40C | 0.02
111 | C37U U43C | 0.06
112 | A4U G44A | 0.17
113 | C10G G22C | 0.12
114 | C10A C18G | 0.04
115 | C42G G44C | 0.06
116 | G1U G21C | 0.39
117 | C13G G35C | 0.81
118 | G19U A41G | 0.2
119 | G27U G33A | 0.09
120 | G40A A41U | 0.26

Row | Variant | self-cleavage
121 | G5A A6U | 0.12
122 | G2U A4C | 0.07
123 | A14U U34C | 0.17
124 | C31G U43A | 0.13
125 | G36U A41C | 0.05
126 | U9A A41C | 0.08
127 | G5U A26G | 0.12
128 | C15U A39C | 0.18
129 | G7U A25U | 0.1
130 | A11U G44U | 0.05
131 | A24G G35U | 0.13
132 | G22A G44A | 0.97
133 | C8A U9G | 0.03
134 | G17U U43G | 0.06
135 | C8U U34A | 0.1
136 | G5A G35U | 0.26
137 | A6G G30U | 0.13
138 | U20C A41U | 0.46
139 | G21A C42U | 1.82
140 | G17U C37G | 0.03
141 | C8A G17A | 0.3
142 | C10A G33U | 0.05
143 | G19C C23A | 0.37
144 | A11C G33A | 0.04

Row | Variant | self-cleavage
145 | U32A G36U | 0.05
146 | A14U G44C | 0.2
147 | G22A G30A | 1.24
148 | U9C G40A | 0.03
149 | G22C U32G | 0.2
150 | G7U G17U | 0.12
151 | G19U C45G | 0.82
152 | A4G U9G | 0.23
153 | G21A G27C | 1.22
154 | G2C C13G | 0.03
155 | G7A C10U | 0.04
156 | A12G G21C | 0.01
157 | G33U U38G | 0.04
158 | C37A C45G | 0.17
159 | A25G A26C | 0.49
160 | G7A C13U | 0.29
161 | G19C G36A | 0.09
162 | A4G U9C | 0.02
163 | A4G C10U | 0.22
164 | C15U A16U | 0.1
165 | G22U C37A | 0.06
166 | C31A C42G | 0.05
167 | G29U G40C | 0.14
